This note sets out measurements from the supplement of paper PMC9112550, “Optimization of the antimicrobial peptide Bac7 by deep mutational scanning” (BMC Biology, 2022).

The test system of this series is Escherichia coli TOP10. In words: shrunken log2 fold change of peptide-encoding DNA abundance (4.5 h post-induction vs induction); higher = less antimicrobial activity (less host growth inhibition). The note with it: time post-induction: 4.5 h; library: site-saturation at positions 5, 18, 19, 20.
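Note: peptides expressed intracellularly from a pBAD plasmid library in pooled LB shake-flask culture, induced with 0.3% L-arabinose, DNA abundance read by NGS, three biological replicates, DESeq2 with apeglm shrinkage.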

With RRIRKRPPRLPRPRPRPYILPRP, the “shrunken log2 fold change” value is -0.0873.
Then RRIRQRPPRLPRPRPRPVTNPRP, with 0.0368; and RRIRWRPPRLPRPRPRPLSDPRP, with 0.254; and RRIRQRPPRLPRPRPRPMQMPRP, with 0.0303.
The value for RRIRGRPPRLPRPRPRPLTWPRP was 0.462.
The value for RRIRGRPPRLPRPRPRPDSNPRP was -0.0604; that for RRIRFRPPRLPRPRPRPKNPPRP was -0.00149.
For RRIRWRPPRLPRPRPRPGHCPRP, the “shrunken log2 fold change” value is -0.101.
Then RRIRQRPPRLPRPRPRPKKRPRP, with 0.107; and RRIRSRPPRLPRPRPRPLRPPRP, with 0.953.
Then RRIRPRPPRLPRPRPRPYTRPRP, with -0.853.
Regarding RRIRLRPPRLPRPRPRPHVIPRP, the “shrunken log2 fold change” value was found to be 0.0211.
The value for RRIRTRPPRLPRPRPRPTDKPRP was -0.55.
Then RRIRNRPPRLPRPRPRPAAFPRP, with -0.0633; and RRIRVRPPRLPRPRPRPERKPRP, with 0.111; and RRIRQRPPRLPRPRPRPPEEPRP, with -0.00674.
Consider RRIRERPPRLPRPRPRPCNYPRP, for which the “shrunken log2 fold change” value was -0.746.
The value for RRIRGRPPRLPRPRPRPCNQPRP was -0.174; that for RRIRWRPPRLPRPRPRPFYGPRP was -0.0562; that for RRIRTRPPRLPRPRPRPSPAPRP was 0.133.
The value for RRIRRRPPRLPRPRPRPVFMPRP was 0.251.
The value for RRIRFRPPRLPRPRPRPLHRPRP was 0.136; that for RRIRRRPPRLPRPRPRPYILPRP was 0.366.
With RRIRYRPPRLPRPRPRPSCHPRP, the “shrunken log2 fold change” value was -0.0195.
Then RRIRTRPPRLPRPRPRPESVPRP, with -0.0229; and RRIRQRPPRLPRPRPRPVANPRP, with 0.124; and RRIRPRPPRLPRPRPRPCIAPRP, with 0.00774.
Then RRIRMRPPRLPRPRPRPHHAPRP, with 0.0324; and RRIRMRPPRLPRPRPRPHLLPRP, with 0.137.
The value for RRIRARPPRLPRPRPRPMDHPRP was 0.267; that for RRIRTRPPRLPRPRPRPKAMPRP was 0.0836; that for RRIRRRPPRLPRPRPRPWMWPRP was 0.0918.
RRIRNRPPRLPRPRPRPSKSPRP: the “shrunken log2 fold change” value was -0.227.
Then RRIRLRPPRLPRPRPRPTMRPRP, with 0.836.
Then RRIRMRPPRLPRPRPRPAHWPRP, with 0.792; and RRIRPRPPRLPRPRPRPTFYPRP, with -0.235; and RRIRKRPPRLPRPRPRPRIAPRP, with 0.599.
Take RRIRGRPPRLPRPRPRPMDMPRP: the “shrunken log2 fold change” value was -0.02.
Regarding RRIRFRPPRLPRPRPRPAKDPRP, the “shrunken log2 fold change” value was 0.255.
The value for RRIRRRPPRLPRPRPRPPMGPRP was 0.554; that for RRIRWRPPRLPRPRPRPPMMPRP was 0.203; that for RRIRKRPPRLPRPRPRPEWVPRP was 0.478.
The value for RRIRVRPPRLPRPRPRPLWHPRP was -0.0301; that for RRIRMRPPRLPRPRPRPFGSPRP was 0.00388; that for RRIRGRPPRLPRPRPRPNATPRP was 3.1.
Then RRIRDRPPRLPRPRPRPYVCPRP, with 0.0261; and RRIRSRPPRLPRPRPRPMLGPRP, with 0.106.
RRIRTRPPRLPRPRPRPCHKPRP: the “shrunken log2 fold change” value turned out to be 0.014.
On to RRIRQRPPRLPRPRPRPNMTPRP, for which the “shrunken log2 fold change” value is -0.196.
Then RRIRERPPRLPRPRPRPQAMPRP, with 0.00616; and RRIRYRPPRLPRPRPRPFSPPRP, with -0.319.
As for RRIRSRPPRLPRPRPRPYPGPRP, the “shrunken log2 fold change” value was -0.199.
As to RRIRKRPPRLPRPRPRPVRGPRP, the “shrunken log2 fold change” value worked out at 0.732.
Then RRIRNRPPRLPRPRPRPKAWPRP, with 0.133.
Then RRIRYRPPRLPRPRPRPEMYPRP, with -0.0203; and RRIRIRPPRLPRPRPRPCMVPRP, with -1.06; and RRIRRRPPRLPRPRPRPFESPRP, with -0.0115.
The value for RRIRLRPPRLPRPRPRPGVAPRP was 0.529; that for RRIRCRPPRLPRPRPRPNNFPRP was -0.493.
For RRIRPRPPRLPRPRPRPWRMPRP, the “shrunken log2 fold change” value stood at 0.217.
Take RRIRIRPPRLPRPRPRPQLNPRP: the “shrunken log2 fold change” value was -0.499.
The value for RRIRSRPPRLPRPRPRPRCCPRP was -0.00537; that for RRIRGRPPRLPRPRPRPGKAPRP was 0.529; that for RRIRDRPPRLPRPRPRPILEPRP was -0.0842.
Consider RRIRYRPPRLPRPRPRPGRMPRP, for which the “shrunken log2 fold change” value is -0.642.
Then RRIRFRPPRLPRPRPRPRHWPRP, with 0.437; and RRIRWRPPRLPRPRPRPGESPRP, with 0.159.
The value for RRIRIRPPRLPRPRPRPCPDPRP was -0.127; that for RRIRMRPPRLPRPRPRPETTPRP was 3.65.
On to RRIRARPPRLPRPRPRPVCVPRP, for which the “shrunken log2 fold change” value stood at 0.579.
The value for RRIRHRPPRLPRPRPRPHKSPRP was -0.337; that for RRIRSRPPRLPRPRPRPNRNPRP was -0.163.
As to RRIRERPPRLPRPRPRPFQHPRP, the “shrunken log2 fold change” value is -0.252.
The value for RRIRIRPPRLPRPRPRPGTAPRP was -0.0164; that for RRIRTRPPRLPRPRPRPMTGPRP was 0.17.
On to RRIRKRPPRLPRPRPRPQPSPRP, for which the “shrunken log2 fold change” value came to 0.567.
The value for RRIRIRPPRLPRPRPRPTTVPRP was -0.319.
On to RRIRIRPPRLPRPRPRPCGEPRP, for which the “shrunken log2 fold change” value is -0.0104.
Regarding RRIRIRPPRLPRPRPRPPCTPRP, the “shrunken log2 fold change” value was -0.332.
The value for RRIRWRPPRLPRPRPRPVFIPRP was -0.22; that for RRIRSRPPRLPRPRPRPAWNPRP was 0.467.
As for RRIRGRPPRLPRPRPRPNICPRP, the “shrunken log2 fold change” value turned out to be 0.168.
Then RRIRMRPPRLPRPRPRPVFFPRP, with 0.207; and RRIRHRPPRLPRPRPRPAELPRP, with -0.00261; and RRIRSRPPRLPRPRPRPAFGPRP, with 0.291.
The value for RRIRFRPPRLPRPRPRPQCEPRP was 0.0491.
Then RRIRNRPPRLPRPRPRPLGLPRP, with -0.0325; and RRIRDRPPRLPRPRPRPYSPPRP, with 0.0205.
With RRIRVRPPRLPRPRPRPSMTPRP, the “shrunken log2 fold change” value is -0.175.
The value for RRIRSRPPRLPRPRPRPFQSPRP was -0.167; that for RRIRQRPPRLPRPRPRPCVMPRP was -0.149.
Consider RRIRGRPPRLPRPRPRPKYVPRP, for which the “shrunken log2 fold change” value worked out at 0.0402.
The value for RRIRHRPPRLPRPRPRPMKSPRP was -0.00231; that for RRIRIRPPRLPRPRPRPKLFPRP was -0.179.
Then RRIRQRPPRLPRPRPRPYDKPRP, with -0.119.
As to RRIRCRPPRLPRPRPRPNAMPRP, the “shrunken log2 fold change” value amounted to 0.0678.
Then RRIRCRPPRLPRPRPRPPFDPRP, with 0.415; and RRIRGRPPRLPRPRPRPIHPPRP, with 0.0319.
The value for RRIRDRPPRLPRPRPRPGRYPRP was -0.134.
The value for RRIRVRPPRLPRPRPRPQCDPRP was -0.0528; that for RRIRIRPPRLPRPRPRPNAHPRP was -0.0997; that for RRIRWRPPRLPRPRPRPHQFPRP was -0.843.
Take RRIRIRPPRLPRPRPRPQVLPRP: the “shrunken log2 fold change” value was -0.338.
As for RRIRQRPPRLPRPRPRPFHYPRP, the “shrunken log2 fold change” value was -0.996.
Then RRIRWRPPRLPRPRPRPAKTPRP, with 0.0165; and RRIRGRPPRLPRPRPRPFKEPRP, with -0.0428.
The value for RRIRRRPPRLPRPRPRPFPYPRP was -0.28.
The value for RRIRFRPPRLPRPRPRPVMRPRP was 0.518.
Take RRIRYRPPRLPRPRPRPLHTPRP: the “shrunken log2 fold change” value is -0.169.
The value for RRIRDRPPRLPRPRPRPWTKPRP was 0.0467; that for RRIRMRPPRLPRPRPRPPQMPRP was 0.594.
Then RRIRRRPPRLPRPRPRPYLLPRP, with -0.263.
RRIRKRPPRLPRPRPRPAYPPRP: the “shrunken log2 fold change” value was -0.0401.
RRIRIRPPRLPRPRPRPCKKPRP: the “shrunken log2 fold change” value was -0.0718.
In the case of RRIRVRPPRLPRPRPRPSQMPRP, the “shrunken log2 fold change” value is -0.0502.
As to RRIRWRPPRLPRPRPRPRQRPRP, the “shrunken log2 fold change” value stood at 0.957.
The value for RRIRCRPPRLPRPRPRPGHDPRP was -0.00827; that for RRIRWRPPRLPRPRPRPFEKPRP was 0.0683.
With RRIRFRPPRLPRPRPRPRCFPRP, the “shrunken log2 fold change” value is -0.183.
Then RRIRARPPRLPRPRPRPDICPRP, with 0.307; and RRIRCRPPRLPRPRPRPPSRPRP, with 0.558; and RRIRKRPPRLPRPRPRPCVEPRP, with 0.13.
In the case of RRIRTRPPRLPRPRPRPYCYPRP, the “shrunken log2 fold change” value was -0.104.
Then RRIRGRPPRLPRPRPRPIMIPRP, with 0.0216; and RRIRKRPPRLPRPRPRPQYYPRP, with -0.359.
